The record followed here is the supplement of paper PMC9170038.

This data set relates to MS2 coat protein. Briefly: apparent KD of MS2 coat protein; designed switch direction (-1 OFF switch, 1 ON switch): -1; higher = weaker reporter binding. The gist of the method:
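Designed RNA switches sharing common flanks were transcribed on Illumina chips by stalled E. coli RNA polymerase. They were titrated with SNAP-549-labelled MS2 coat protein, from 0.7 or 1.5 nM doubling to 3 µM, in Tris-HCl pH 7.5 buffer with KCl, MgCl2, BSA, DTT, tRNA and Tween-20. Titrations ran without input, with 200 uM small-molecule ligand, or with an oligonucleotide input. The apparent KD of each design is the median over its clusters, after curve-fitting of normalised cluster fluorescence.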

Setting [1] is: input ligand: microRNA oligo, concentration not stated.
Setting [2] is: Eterna round: R95, input ligand: FMN 200 uM.
[3] abbreviates: Eterna round: R95, input ligand: microRNA oligo, concentration not stated.
The mark [4] stands for this setting: Eterna round: R95, input ligand: none.

As to “ACGACUGGAGGAUAUGCUCUGGGAGCGAUCGUAUAAGCAGUACUUGAGGAUCACCCAAGUAGAAGGUCAGCUCG [Riorus] (Eterna round: R97, puzzle: Exclusion 2)”, the “apparent KD of MS2 coat protein” value was 140 nM (input ligand: FMN 200 uM) and 37.6 nM (input ligand: none).
As to “ACGAUGACUGAAAAGUGUAAACUGACAUGAGGAUCACCCAUGUAGGAUAUGGCUACGAAAAGUAGUCAGAAGGGCAUGUCAUCA [Omei Exc(NG) 3 Av10] (Eterna round: R96, puzzle: Exclusion NG 3)”, the “apparent KD of MS2 coat protein” value stood at 14.3 nM (input ligand: FMN 200 uM), 13.4 nM under setting [1] and 17.1 nM (input ligand: none).
For “ACGAUGAUCGAAAAGUGUAAACUGACAUGAGGAUCACCCAUGUAGGAUAUGGCUACGAAAAGUAGUCAGAAGGGCAUGUCAUCA [Omei Exc(NG) 3 Av11] (Eterna round: R96, puzzle: Exclusion NG 3)”, the “apparent KD of MS2 coat protein” value is, setting by setting: (input ligand: FMN 200 uM) 51.3 nM; under setting [1], 34.6 nM; (input ligand: none) 47.9 nM.
Consider “ACGCAUUGCCUUUGGUAGUGCGUAACAUGAGGAUCACCCAUGUAGGAUAUGGUAGGCUUUGCUUACCAGAAGGACAUAAUAAAU [Mat - Exclusion NG 3 - Mod of JL - D2] (Eterna round: R96, puzzle: Exclusion NG 3)”, for which the “apparent KD of MS2 coat protein” value is 52.7 nM (input ligand: FMN 200 uM), 25.1 nM under setting [1] and 28.8 nM (input ligand: none).
For the sequence “ACGCCACAUGAGGAUCACCCAUGUGAGGAUAUGGCCUGUUUGGCGUGUGCUGGCUCUGUCAGAAGGCGCGUGGG [salish99_ex1_r4_039] (Eterna round: R97, puzzle: Exclusion 1)”, the “apparent KD of MS2 coat protein” value by setting is: (input ligand: FMN 200 uM) 45.4 nM; (input ligand: none) 42.3 nM.
The matching figures for “ACGCCUAUAGUGAGGAUAUUGCGGGUAGGUAUUUGCAAGAAGGCACUUGAGGAUCACCCAAGUGAAGAAGUUGC [Geusra] (Eterna round: R97, puzzle: Brourd's mod of Exclusion 4)”: 14.7 nM and 15.1 nM.
As to “ACGUCCCAAGUCAGGAUAUAGGCCGGACAAAGGGACUAGAAGGGACAUGAGGAUCACCCAUGUGGGCAAAAGAC [Terarace] (puzzle: Brourd's mod of Exclusion 4)”, the “apparent KD of MS2 coat protein” value runs as follows: under setting [2], 29.4 nM; under setting [3], 29.4 nM; under setting [4], 32 nM.
On to “ACUAGAUGAGGAUAUGCAUAUUUUCGUGUUCUUCUAGAUUAACAUGAGGAUCACCCAUGUAGAAGGCGUCAUUU [Exclusion 2 - 16] (puzzle: Exclusion 2)”, for which the “apparent KD of MS2 coat protein” value under setting [3] came to 15.7 nM.
As for “ACUAGAUGAGGAUAUGCAUAUUUUCGUGUUCUUCUAGGUUAACAUGAGGAUCACCCAUGUAGAAGGCGUCUAUG [Exclusion 2 - 24] (puzzle: Exclusion 2)”, under setting [3], the “apparent KD of MS2 coat protein” value stood at 19.3 nM.
As for “ACUAGCUUUUUGCAUUUUAGGUUUGUUGCUUCGUAUGUAACAUGAGGAUCACCCAUGUAUUACUGAUGUCGUCGUUU [JR_SV3TOV2_Sub090] (Eterna round: R96, puzzle: Sensor v3, turn-off variant 2)”, the “apparent KD of MS2 coat protein” value by setting is: (input ligand: FMN 200 uM) 18.5 nM; under setting [1], 15.5 nM; (input ligand: none) 20.3 nM.
For the sequence “ACUAGCUUUUUGCAUUUUAGGUUUGUUGCUUCGUAUGUAACAUGAGGAUCACCCAUGUAUUACUGAUGUCGUCGUUU [JR_SV3TOV2_Sub090] (puzzle: Sensor v3, turn-off variant 2)”, the “apparent KD of MS2 coat protein” value stood at 18.4 nM under setting [2], 16.5 nM under setting [3] and 18.5 nM under setting [4].
For the sequence “ACUCGACAUGAGGAUCACCCAUGUGAGGAUAUGGCCUGUAUGGCGUGAGCUGAAUCAAUCAGAAGGCGCGUGGG [salish99_ex1_r4_053] (Eterna round: R97, puzzle: Exclusion 1)”, the “apparent KD of MS2 coat protein” value runs as follows: (input ligand: FMN 200 uM) 105 nM; (input ligand: none) 44.8 nM.
As to “ACUCGUAACUAGGAUAUCCGAAAUAAACGAGGAGGAGAAGGAGUUACAUGAGGAUCACCCAUGUGAUAUAAAGA [Edtisoed] (puzzle: Exclusion 6)”, the “apparent KD of MS2 coat protein” value came to 47 nM under setting [2], 15.3 nM under setting [3] and 17.6 nM under setting [4].
As to “ACUGGUGCAGGAUAUACAUUCGUGCUUCGGCACGUAAGAUCACAUGAGGAUCACCCAUGUAGAAGGGCACCAGU [E2/5-D2] (Eterna round: R97, puzzle: Exclusion 2)”, the “apparent KD of MS2 coat protein” value (input ligand: FMN 200 uM) is 642 nM and the “apparent KD of MS2 coat protein” value (input ligand: none) was 81.6 nM.
The matching figures for “ACUGUAGAAGGAUAUGCUUCGACUCACAUGAGGAUCACCCAUGUCUUCGUGCAGUCGUCUGCAGAAGGUCUCCAGU [EX5 C.7] (Eterna round: R97, puzzle: Exclusion 5)”: 1050 nM and 956 nM.
The matching figures for “ACUUACCAUGUCAGGAUAUGUACUUAGAACGCGAUGCAGAAGGGACAUGAGGAUCACCCAUGUAAUGUCUGAUA [Eternabot (L2) Solution 2] (Eterna round: R97, puzzle: Brourd's mod of Exclusion 4)”: 51.6 nM and 21.1 nM.
As to “ACUUACUGAGGAUAUACAUAGAUUUACAUGAGGAUCACCCAUGUUCCUCUUUGUAUAAAUGUAGAAGGCAGAAGAU [Mat - Exclusion 5 - JL Mod - D59] (Eterna round: R97, puzzle: Exclusion 5)”, the “apparent KD of MS2 coat protein” value runs as follows: (input ligand: FMN 200 uM) 183 nM; (input ligand: none) 96.5 nM.
With “ACUUAUUGAGGAUAUACAUUAAAAUACAUGAGGAUCACCCAUGUUCUUCAAUGUAUAUAUGUAGAAGGCAGAAGAA [JL-ex5-4.29 Malcolm mod] (Eterna round: R97, puzzle: Exclusion 5)”, the “apparent KD of MS2 coat protein” value was determined as 57.6 nM (input ligand: FMN 200 uM) and 22.2 nM (input ligand: none).
As to “AGAAAAGACCUAGGAUAUACCCAGUGGGUAGAGGGUCAUAAUAAUAAAACAUGAGGAUCACCCAUGUAGAAGGAGGGAAAGAAG [Biriusdibe] (Eterna round: R96, puzzle: Exclusion NG 2)”, the “apparent KD of MS2 coat protein” value turned out to be 58.1 nM (input ligand: FMN 200 uM), 47.1 nM under setting [1] and 63.2 nM (input ligand: none).
In the case of “AGAAAUGCCCAUGGCCACAAGCUUUCUGCUUGUCUUACUACAUGAGGAUCACCCAUGUAACAUGGGCUCCUGAUAAU [Enzainge] (puzzle: Sensor v3, turn-off variant 2)”, the “apparent KD of MS2 coat protein” value runs as follows: under setting [2], 13.2 nM; under setting [3], 10.4 nM; under setting [4], 11.4 nM.
On to “AGAAAUGCCCAUGGCCACAAGCUUUUCGCUUGUCUUACUACAUGAGGAUCACCCAUGUAACAUGGGCUCCUGAUAAU [Resoriraqu] (puzzle: Sensor v3, turn-off variant 2)”, for which the “apparent KD of MS2 coat protein” value was determined as 12.5 nM under setting [2], 11 nM under setting [3] and 12 nM under setting [4].
On to “AGAAGACAUGAGGAUCACCCAUGUAAGGAUAUCGAAGGUAAGAGAGGAAAGAAGUUAACGAGAAGGUACAGGUG [JR_Exclu1_Sub097] (puzzle: Exclusion 1)”, for which the “apparent KD of MS2 coat protein” value is, setting by setting: under setting [2], 101 nM; under setting [3], 123 nM; under setting [4], 116 nM.
The like results for “AGAAGUAGAAACCGAUCCUACAUGAGGAUCACCCAUGUAGCAAGACGUGCACGCGAAGCUCGUCAGACUACCAGAAC [salish99_TOv1_r3_008] (puzzle: Sensor v3, turn-off variant 1)” were, in that order, 229 nM, 264 nM and 421 nM.
As to “AGAAGUAGUAACCGAUCCUACAUGAGGAUCACCCAUGUAGCUAGACGUGCACGCGACGCUCGUCAGACUACCAGAUG [salish99_TOv1_r3_029] (puzzle: Sensor v3, turn-off variant 1)”, the “apparent KD of MS2 coat protein” value under setting [2] is 270 nM, the “apparent KD of MS2 coat protein” value under setting [3] was 324 nM and the “apparent KD of MS2 coat protein” value under setting [4] is 418 nM.
The matching figures for “AGAAGUAGUAUCCGAUCCUACAUGAGGAUCACCCAUGUAGCUAGACGUGCACGCGAUGCUCGUCAGACUACCAGAUG [salish99_TOv1_r3_030] (puzzle: Sensor v3, turn-off variant 1)”: 156 nM, 205 nM and 405 nM.
Regarding “AGACAGUCAGGAUAUACAUGAGGAUCACCCAUGUUGAGAUGUGAAAGGGCAGGAAUAGGUAGAAGGGACGAGAG [JR_Exclu3_Sub038] (puzzle: Exclusion 3)”, under setting [3], the “apparent KD of MS2 coat protein” value was determined as 30.6 nM.
In the case of “AGAGAGUCAGGAUAUCGGAGGGAGAGGAGAGGAGAGAGGGACGAGAAGGGACAUGAGGAUCACCCAUGUAGGUG [JR_Exclusion4)Sub017] (puzzle: Exclusion 4)”, the “apparent KD of MS2 coat protein” value under setting [2] was determined as 263 nM, the “apparent KD of MS2 coat protein” value under setting [3] came to 437 nM and the “apparent KD of MS2 coat protein” value under setting [4] is 663 nM.
For “AGAGUACAUGUGAGGAUAUCUGGAGUGUCCCACGAAGAGAAGGCACAUGAGGAUCACCCAUGUCGUCCCGGUUU [Eternabot (L1) Solution 28] (Eterna round: R97, puzzle: Brourd's mod of Exclusion 4)”, the “apparent KD of MS2 coat protein” value came to 22.5 nM (input ligand: FMN 200 uM) and 17.1 nM (input ligand: none).
Turning to “AGAGUGCUGCGAGGAUAUACAUGAGGAUCACCCAUGUUUACCUGUGAGGCAAAGCCUCACAGGUUGUAGAAGGCGCAGUACUCA [Mat - Exclusion NG 2 - Mod of JL - D42] (Eterna round: R96, puzzle: Exclusion NG 2)”, the “apparent KD of MS2 coat protein” value (input ligand: FMN 200 uM) was found to be 9.39 nM, the “apparent KD of MS2 coat protein” value under setting [1] stood at 10.1 nM and the “apparent KD of MS2 coat protein” value (input ligand: none) amounted to 19.4 nM.
Take “AGAGUGCUGCGAGGAUAUACAUGAGGAUCACCCAUGUUUUCGUGUGAGGCUUUGCCUCACACGAAGUAGAAGGCGCAGUACUCA [Mat - Exclusion NG 2 - Mod of JL - D32] (Eterna round: R96, puzzle: Exclusion NG 2)”: the “apparent KD of MS2 coat protein” value turned out to be 7.28 nM (input ligand: FMN 200 uM), 9.46 nM under setting [1] and 10.9 nM (input ligand: none).
